Key:
type IV collagen [1] = test: SPR
type IV collagen [2] = target: type IV collagen (biotin (Pierce EZ-link biotinylation kit) in the pull-downs); test: SPR

| Kd (type IV collagen [1]) | koff (type IV collagen [1]) | kon (type IV collagen [1]) | Kd (type IV collagen [2]) | koff (type IV collagen [2]) | kon (type IV collagen [2]) | Molecule |
| --- | --- | --- | --- | --- | --- | --- |
| 1.3 nM | 0.000404 s⁻¹ | 306000 M⁻¹ s⁻¹ | – | – | – | Gpr126-NT-Fc (secreted, Fc-tagged protein containing the N-terminal fragment of zebrafish Gpr126) (Fc fusion) |
| – | – | – | 1.2 nM | 0.00333 s⁻¹ | 2.78e+06 M⁻¹ s⁻¹ | CUBPTX-Fc (signal peptide, CUB domain and PTX domain of Gpr126 followed by an Fc tag) (Fc fusion, zebrafish, UniProt C6KFA3 41-336, looked up) CNVVLTDSQGSFTSPCYPNDYPPSQSCNWTIQAPAGFIVQITFLDFELEEAQGCIYDRVVVKTGTSDAKFCGLTANGLTLNSTGNVMEVFFNSDFSVQKKGFHISYKQVAVTLRNQKVTMPKSSKTILRVSNSISIPVLTAFTVCFEIARTAQKATETIFTLSDAAGTSILAFEKTSNGMELFIGASYCSVDNLLTSSDITATMKPLCLTWTKSSGLIGVYFGGHYFSSICSASQIYTLQSGGLLQIAGKGSSSVSVDDQNLDGFIYNFRLWDHAMLSSELSALTCDTVGNVVDWD |

Source: PMC4159047 (Science signaling, 2014)
